Read-outs that look alike come from different tables or passages of the source.
Assays:
nectin-2 (Homo sapiens) = nectin-2 (Homo sapiens) (UniProt Q92692); settings: cited from earlier work
PVR (Homo sapiens) [1] = molecular target: PVR (Homo sapiens) (UniProt P15151); settings: cited from earlier work
PVR (Homo sapiens) [2] = molecular target: PVR (Homo sapiens) (UniProt P15151); settings: cited from earlier work; remark: listed apart in the source
[3] = molecular target: T1, wild-type PVR fused with EGFP, extracted membrane protein (human), P15151; assay: MST; extracted membrane protein of PVR or PVR mutants fused with EGFP (quantified by EGFP fluorescence) as the fluorescent partner; TIGIT-His serially diluted two-fold from 25 μM to 0.000153 μM; settings: remark: other sources report otherwise
T1 chain: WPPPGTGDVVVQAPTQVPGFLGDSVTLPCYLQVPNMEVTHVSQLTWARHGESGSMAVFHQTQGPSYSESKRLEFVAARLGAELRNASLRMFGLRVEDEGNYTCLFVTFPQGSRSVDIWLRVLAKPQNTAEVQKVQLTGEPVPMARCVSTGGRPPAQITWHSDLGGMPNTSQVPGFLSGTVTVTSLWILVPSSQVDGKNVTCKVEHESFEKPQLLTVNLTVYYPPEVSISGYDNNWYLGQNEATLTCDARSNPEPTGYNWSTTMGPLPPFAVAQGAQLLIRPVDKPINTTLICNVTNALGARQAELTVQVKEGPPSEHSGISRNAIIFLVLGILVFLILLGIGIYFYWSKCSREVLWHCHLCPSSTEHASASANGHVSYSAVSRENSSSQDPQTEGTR

[4] = molecular target: T2, PVR mutant S72W fused with EGFP, extracted membrane protein (human, UniProt P15151 21-417, S72W); assay: as above; settings: one partner purified
T2 construct: poliovirus receptor (PVR, CD155), human; Probably the full-length membrane protein; also called PVRS72W; source: membrane protein extracted, quantified by EGFP fluorescence
T2 sequence (looked up): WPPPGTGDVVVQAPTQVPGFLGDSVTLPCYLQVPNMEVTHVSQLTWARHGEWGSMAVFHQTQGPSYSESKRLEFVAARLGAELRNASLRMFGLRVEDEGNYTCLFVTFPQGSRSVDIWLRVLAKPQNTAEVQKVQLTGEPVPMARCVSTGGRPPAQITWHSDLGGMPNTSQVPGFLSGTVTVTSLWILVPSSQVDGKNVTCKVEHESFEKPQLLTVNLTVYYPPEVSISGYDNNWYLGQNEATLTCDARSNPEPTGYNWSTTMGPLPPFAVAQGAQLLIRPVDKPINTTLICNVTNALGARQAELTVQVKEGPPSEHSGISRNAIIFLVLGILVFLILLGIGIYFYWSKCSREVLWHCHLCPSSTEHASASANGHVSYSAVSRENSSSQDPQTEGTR

[5] = molecular target: T3, PVR mutant S72R fused with EGFP, extracted membrane protein (human, UniProt P15151 21-417, S72R); assay: as above; settings: one partner purified
T3 construct: poliovirus receptor (PVR, CD155), human; Probably the full-length membrane protein; also called PVRS72R; source: membrane protein extracted, quantified by EGFP fluorescence
T3 sequence (looked up): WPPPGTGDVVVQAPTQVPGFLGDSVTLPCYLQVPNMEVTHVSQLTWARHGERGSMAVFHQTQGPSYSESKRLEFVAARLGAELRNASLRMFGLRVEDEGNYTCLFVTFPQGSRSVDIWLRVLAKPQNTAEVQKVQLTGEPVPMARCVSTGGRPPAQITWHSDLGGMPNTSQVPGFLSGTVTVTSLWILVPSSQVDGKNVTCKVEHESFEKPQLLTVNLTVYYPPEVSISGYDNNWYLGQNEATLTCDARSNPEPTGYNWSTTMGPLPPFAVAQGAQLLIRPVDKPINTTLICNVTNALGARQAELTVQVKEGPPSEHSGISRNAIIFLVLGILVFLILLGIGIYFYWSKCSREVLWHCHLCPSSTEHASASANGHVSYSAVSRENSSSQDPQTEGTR

[6] = molecular target: T4, PVR mutant G131V fused with EGFP, extracted membrane protein (human, UniProt P15151 21-417, G131V); assay: as above; settings: one partner purified
T4 construct: poliovirus receptor (PVR, CD155), human; Probably the full-length membrane protein; also called PVRG131V; source: membrane protein extracted, quantified by EGFP fluorescence
T4 sequence (looked up): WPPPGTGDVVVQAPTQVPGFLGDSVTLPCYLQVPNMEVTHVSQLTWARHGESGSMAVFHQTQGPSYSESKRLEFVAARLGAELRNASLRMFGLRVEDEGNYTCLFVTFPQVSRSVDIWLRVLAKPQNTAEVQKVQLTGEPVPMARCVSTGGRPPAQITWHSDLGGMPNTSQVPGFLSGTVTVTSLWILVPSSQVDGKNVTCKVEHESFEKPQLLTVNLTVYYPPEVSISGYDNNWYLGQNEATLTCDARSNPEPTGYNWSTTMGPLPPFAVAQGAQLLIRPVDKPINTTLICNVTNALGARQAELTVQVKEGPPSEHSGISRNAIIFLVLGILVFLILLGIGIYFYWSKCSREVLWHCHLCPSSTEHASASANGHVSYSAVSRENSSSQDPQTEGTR

[7] = molecular target: T5, PVR mutant S132Q fused with EGFP, extracted membrane protein (human, UniProt P15151 21-417, S132Q); assay: as above; settings: one partner purified
T5 construct: poliovirus receptor (PVR, CD155), human; Probably the full-length membrane protein; also called PVRS132Q; source: membrane protein extracted, quantified by EGFP fluorescence
T5 sequence (looked up): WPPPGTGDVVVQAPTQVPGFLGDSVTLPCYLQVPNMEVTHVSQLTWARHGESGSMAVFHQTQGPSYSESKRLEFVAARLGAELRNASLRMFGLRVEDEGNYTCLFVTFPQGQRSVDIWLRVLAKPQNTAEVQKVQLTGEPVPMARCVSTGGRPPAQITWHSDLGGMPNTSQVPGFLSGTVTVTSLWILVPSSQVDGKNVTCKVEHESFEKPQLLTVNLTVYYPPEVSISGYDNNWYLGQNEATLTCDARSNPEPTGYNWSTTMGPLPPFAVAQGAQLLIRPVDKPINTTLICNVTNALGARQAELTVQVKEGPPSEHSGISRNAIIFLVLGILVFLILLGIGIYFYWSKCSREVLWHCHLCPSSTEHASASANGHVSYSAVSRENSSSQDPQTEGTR

nectin-2 (Homo sapiens), sequence (Q92692 32-360): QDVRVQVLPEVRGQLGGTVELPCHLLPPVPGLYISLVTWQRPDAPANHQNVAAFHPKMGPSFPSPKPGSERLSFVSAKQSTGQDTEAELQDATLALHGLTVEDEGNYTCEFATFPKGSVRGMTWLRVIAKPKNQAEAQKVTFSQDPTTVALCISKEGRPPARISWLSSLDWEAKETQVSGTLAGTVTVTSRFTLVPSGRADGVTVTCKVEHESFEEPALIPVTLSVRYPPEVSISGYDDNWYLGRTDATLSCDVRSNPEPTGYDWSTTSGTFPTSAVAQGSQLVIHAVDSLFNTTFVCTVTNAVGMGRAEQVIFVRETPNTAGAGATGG

TIGIT (from UniProt Q495A1)
Kd (nectin-2 (Homo sapiens)): 5800 nM | Kd (PVR (Homo sapiens) [1]): 3200 nM

CD96 (from UniProt P40200)
Kd (PVR (Homo sapiens) [2]): 10200 nM

B1: TIGIT-His eukaryotic protein, Q495A1 22-244 (receptor)
chain: MMTGTIETTGNISAEKGGSIILQCHLSSTTAQVTQVNWEQQDQLLAICNADLGWHISPSFKDRVAPGPGLGLTLQSLTVNDTGEYFCIYHTYPDGTYTGRIFLEVLESSVAEHGARFQIP
modifications: here or on the partner: expressed in eukaryotic cells (glycosylated); His tag omitted; construct limits not given, so the mature extracellular domain (UniProt topology) is used by convention
Kd [3]: 1150 nM

B2: TIGIT-His eukaryotic protein (receptor)
chain: MMTGTIETTGNISAEKGGSIILQCHLSSTTAQVTQVNWEQQDQLLAICNADLGWHISPSFKDRVAPGPGLGLTLQSLTVNDTGEYFCIYHTYPDGTYTGRIFLEVLESSVAEHGARFQIP
modifications: expressed in eukaryotic cells (glycosylated); His tag omitted; construct limits not given, so the mature extracellular domain (UniProt topology) is used by convention
Kd [4]: 328 nM | Kd [5]: 549 nM | Kd [6]: 16 nM | Kd [7]: 58 nM

Reference: paper PMC7869511, “Computer-aided design of PVR mutants with enhanced binding affinity to TIGIT” (Cell Communication and Signaling : CCS, 2021)
